Test results reported in article PMC12721328, “DNA extrusion size determines pathway choice during CAG repeat expansion”.

Target: MSH2 (MutSβ subunit);MSH3 (MutSβ subunit) (human;human, UniProt P43246;P20585 1-934;1-1137, |)
Test: SPR; 10 mM Mg2+; FAN1 SPR: 20 mM Tris-HCl pH 7.6, 70 mM NaCl, 10 mM CaCl2, 1 mM EDTA, 0.01% P-20, 1 mM DTT, 0.05 mg/ml BSA, 5°C; MutSβ SPR: 10 mM Tris-HCl pH 7.6, 150 mM NaCl, 10 mM MgCl2, 1 mM EDTA, 1 mM DTT, 0.005% P-20 (samples held at 10°C)
Conditions: protein: recombinant;recombinant, tags: ;, copies: 1;1, label: 5'-biotin on strand 1, 5'-digoxigenin on strand 2, blunt

B1: (CAG)1 extrusion mr78 (dsDNA)
DNA 1: CGAATTTCTAGACTCGAGATCAGCTGCTAGGTCGAGTCTAGAG
DNA 2: CTCTAGACTCGACCTAGCAGATCTCGAGTCTAGAAATTCG
With B1 as the binder, how does the Kd (central 3-nt extrusion in strand 1, 20 bp each side) read?
The Kd was 500 ± 100 pM.

B2: (CAG)13 extrusion mr78 (dsDNA)
DNA 1: CGAATTTCTAGACTCGAGATCAGCAGCAGCAGCAGCAGCAGCAGCAGCAGCAGCAGCAGCTGCTAGGTCGAGTCTAGAG
DNA 2: CTCTAGACTCGACCTAGCAGATCTCGAGTCTAGAAATTCG
For B2, which Kd (central 39-nt extrusion in strand 1, 20 bp each side) is on record?
Its Kd is 4200 ± 1500 pM.

B3: (CAG)2 extrusion mr78 (dsDNA)
DNA 1: CGAATTTCTAGACTCGAGATCAGCAGCTGCTAGGTCGAGTCTAGAG
DNA 2: CTCTAGACTCGACCTAGCAGATCTCGAGTCTAGAAATTCG
With B3 as the binder, how does the Kd (central 6-nt extrusion in strand 1, 20 bp each side) read?
The Kd was 500 ± 160 pM.

B4: (CAG)3 extrusion mr78 (dsDNA)
DNA 1: CGAATTTCTAGACTCGAGATCAGCAGCAGCTGCTAGGTCGAGTCTAGAG
DNA 2: CTCTAGACTCGACCTAGCAGATCTCGAGTCTAGAAATTCG
With B4 as the binder, how does the Kd (central 9-nt extrusion in strand 1, 20 bp each side) read?
Its Kd is 1200 ± 400 pM.
